Data on 1 molecule can be found in PMC5125287 (Annals of Medicine, 2016).

The target of this experiment is Recombinant carrier-free human βNGF (human, UniProt P01138 122-241). As to the kind of experiment: SPR; BIACORE; PDPN/Fc amine-coupled to a CM5 chip (6000 to 8000 RU); analyte injected at 5 μl/min; NGF at 1 μM; 20 °C; HBS-P (0.01 M Hepes pH 7.4/0.15 M NaCl/0.005% Surfactant P20); reference channel subtracted; regeneration with 1% heparin in PBS; 1:1 Langmuir fit, KD estimated by the steady-state affinity model. To be noted: both partners purified.
Chain of Recombinant carrier-free human βNGF (P01138 122-241): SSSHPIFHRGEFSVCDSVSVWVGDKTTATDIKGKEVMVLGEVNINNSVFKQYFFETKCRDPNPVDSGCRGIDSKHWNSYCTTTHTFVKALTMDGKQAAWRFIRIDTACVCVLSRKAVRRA

B1: Human podoplanin extracellular domain/Fc chimera (Fc fusion, UniProt Q86YL7 23-131, looked up)
chain: ASTGQPEDDTETTGLEGGVAMPGAEDDVVTPGTSEDRYKSGLTTLVATSVNSVTGIRIEDLPTSESTVHAQEQSPSATASNVATSHSTEKVDGDTQTTVEKDGLSTVTL
B1: the Kd is roughly 100 nM.

Broadly, the Kd is the free concentration of one partner at which half of the binding sites on the other are occupied at equilibrium, for simple one-to-one binding.
